The target of this assay is HPV16 L1 pentamers (L1 assembly mutant C428S) (HPV16). In words: electron microscopy.

The text below walks through data of article PMC4934132.

The stoichiometry N is the number of molecules, sites or subunits per partner or assembly. Substance “HPV16 L1 pentamers (L1 assembly mutant C428S) (natural protein)” came in with a stoichiometry N of 5.
